Data: patent publication US20250051434A1

Target: human IL-12 receptor (IL-12R) (human) (UniProt P42701)
Test: cell-based or functional assay

In the case of mIL-12-Fc-wt (Fc fusion), the Mean Fold Reduction (potency vs IL-12 WT by EC50; HEK-Blue IL-12 STAT4/SEAP reporter) is reported as 1 fold.
